The source of these data is paper PMC2816707, “A Humanized Anti-VEGF Rabbit Monoclonal Antibody Inhibits Angiogenesis and Blocks Tumor Growth in Xenograft Models” (PLoS ONE, 2010).

Assay [1] has as its target T1, Recombinant human VEGF165 (human, UniProt P15692-4, strain).
T1 construct: also called human vascular endothelial growth factor-A; VEGF-A165; source: bought: Shanghai Primegene Bio-Tech Co. and R&D System
The experiment in a line: SPR; BIAcore 3000; antibodies immobilised on CM5 chips by amine coupling (about 600 RU); VEGF165 (R&D Systems) injected at 0.2 to 50 nM, 35 µl/min, 25°C, HBS-P (10 mM HEPES pH 7.4, 150 mM NaCl, 0.005% P20); 1:1 binding model, global fit. The following applies: both partners purified. (In general: In SPR one partner is held on a chip, and binding of the other changes the refractive index at the surface.)

The target of assay [2] is T1, Recombinant human VEGF165. The experiment in a line: cell-based or functional assay.
Target sequence in this assay (P15692 whole entry, looked up, change not shown): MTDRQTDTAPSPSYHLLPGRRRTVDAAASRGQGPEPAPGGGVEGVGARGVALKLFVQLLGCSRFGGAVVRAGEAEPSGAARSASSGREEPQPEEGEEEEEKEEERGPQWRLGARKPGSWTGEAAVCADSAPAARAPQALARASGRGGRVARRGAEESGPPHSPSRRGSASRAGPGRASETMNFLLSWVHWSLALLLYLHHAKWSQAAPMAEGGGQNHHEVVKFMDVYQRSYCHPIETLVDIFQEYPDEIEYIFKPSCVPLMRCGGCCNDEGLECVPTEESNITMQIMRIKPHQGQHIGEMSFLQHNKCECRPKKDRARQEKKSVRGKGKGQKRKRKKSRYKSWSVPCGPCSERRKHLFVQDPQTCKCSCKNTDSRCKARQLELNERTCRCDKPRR
The target of assay [3] is T1, Recombinant human VEGF165. The experiment in a line: ELISA; VEGF/VEGFR-2 interaction ELISA: 5 µg/ml Fc-VEGFR-2 (ECD) coated; antibody pre-incubated 1 hour with recombinant human VEGF (0.5 µg/ml final) before transfer to the plate; bound VEGF detected by a mouse anti-VEGF165 monoclonal antibody; triplicates. Particulars: both partners purified.
The target in assay [4] is T1, Recombinant human VEGF165. Kind of assay: SPR; BIAcore 3000; antibodies immobilised on CM5 chips by amine coupling (about 600 RU); VEGF165 (R&D Systems) injected at 0.2 to 50 nM, 35 µl/min, 25°C, HBS-P (10 mM HEPES pH 7.4, 150 mM NaCl, 0.005% P20); 1:1 binding model, global fit. Particulars: both partners purified. The source holds these as a separate data set.
The target of assay [5] is T2, rabbit IgG Fc-hVEGF (human VEGF165) fusion protein, wild type (human, UniProt P15692-4).
T2 construct: also called Fc-VEGF; VEGF wild type; source: HEK-293E cells, transient transfection, cleared culture supernatant; not shown: Fc (rabbit IgG), N-terminal, kept
Kind of assay: ELISA; VEGF capture ELISA: Fc-VEGF supernatants captured on coated goat anti-rabbit IgG (H+L); hEBV321 at various concentrations, 1 hr at 37°C; detected by anti-human IgG alkaline phosphatase. The following applies: one partner purified.

The target in assay [6] is T1, Recombinant human VEGF165. Kind of assay: ELISA; direct competition ELISA: human VEGF-A165 coated (0.05 µg/ml); reference antibody (0.04 µg/ml) mixed with increasing concentration of competitor, 1 hr at room temperature; bound reference antibody detected by anti-rabbit IgG Fc secondary antibody, chemiluminescence. Particulars: both partners purified. Background: ELISA stands for enzyme-linked immunosorbent assay.
Target sequence in this assay (P15692 whole entry, looked up, change not shown): as above

Assay [7] concerns the target T1, Recombinant human VEGF165. Kind of assay: ELISA; VEGF/VEGFR-2 interaction ELISA: 5 µg/ml Fc-VEGFR-2 (ECD) coated; antibody pre-incubated 1 hour with recombinant human VEGF (0.5 µg/ml final) before transfer to the plate; bound VEGF detected by a mouse anti-VEGF165 monoclonal antibody; triplicates. Particulars: both partners purified. The source holds these as a separate data set.

Assay [8] addresses T1, Recombinant human VEGF165. Kind of assay: ELISA; antigen binding ELISA with the antigen coated on a 96-well plate; paired H and L chains of the 15 antibodies; grades against background reading.
Target sequence in this assay (P15692 whole entry, looked up, change not shown): as above

As a reminder, the Kd is the equilibrium constant for the complex coming apart. Usually koff stands for the first-order rate constant of dissociation. One may read the kon as the second-order rate constant of association. As a reminder, the IC50 is the concentration that inhibits the measured activity by half.

T2 sequence (P15692 other isoform, or with tags, fused parts or gaps): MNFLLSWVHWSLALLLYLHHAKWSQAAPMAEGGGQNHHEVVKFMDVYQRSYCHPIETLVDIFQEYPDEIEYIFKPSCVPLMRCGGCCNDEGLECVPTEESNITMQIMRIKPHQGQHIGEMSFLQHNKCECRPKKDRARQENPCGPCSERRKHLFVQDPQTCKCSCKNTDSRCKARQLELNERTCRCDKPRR

B1: humanized EBV321 (antibody, V domains shown)
VH: EVQLVESGGGLVKPGGSLRLSCAASGFSFSNNDVMCWVRQAPGKGLEWIGCIMTTDVVTEYANWAKSRFTVSRDSAKNSVYLQMNSLRAEDTAVYFCARDSVGSPLMSFDLWGPGTLVTVSS
VL: DIQMTQSPSSLSASVGDRVTINCQASQSIYNNNELSWYQQKPGKPPKLLIYRASTLASGVPSRFSGSGSGTDFTLTISSLQPEDVATYYCGGYKSYSNDGNGFGGGTKVEIK
notes: also called hEBV321; humanized anti-VEGF RabMAb; source: 293-6E cells, L and H chain plasmids co-transfected, purified (protein A)
Turning to B1, in assay [1], the Kd is 0.0115 nM, the koff came out at 1.88e-05 s⁻¹ and the on-rate (kon) was found to be 1.63e+06 M⁻¹ s⁻¹. Further, in assay [2], the “IC50 of inhibition of VEGF-stimulated HUVEC proliferation” value turned out to be 0.008 nM. For the same molecule, in assay [3], the half-inhibitory concentration (IC50) came out at 3.2 nM. Further, the Kd in assay [4] came to 0.0119 nM. In addition, the binding result in assay [5] is given as “binds”. The “inhibition of EBV321 binding to VEGF at 5 fold excess” value in assay [6] amounted to 50%.

B2: anti-VEGF RabMAb EBV321 (antibody, V domains shown)
VH: QSLEESGGDLVKPGASLTLSCTASGFSFSNNDVMCWVRQAPGKGLEWIGCIMTTDVVTEYANWAKSRFTVSKTSSSTVTLQLTSLTVADTATYFCARDSVGSPLMSFDLWGPGTLVTVSS
VL: LVMTQTPASVSAAVGGTVTINCQASQSVYGNNELSWYQQKPGQPPKLLIYRASTLASGVPSRFSGSGSGTQFTLTISGVQCADAATYYCGGYKSYSNDGNGFGGGTEVVVK
notes: also called parental EBV321; source: 293-6E cells, L and H chain plasmids co-transfected, purified (protein A)
For the molecule B2, in assay [1], the Kd was 0.419 nM, the koff came out at 0.00119 s⁻¹ and the kon was found to be 2.85e+06 M⁻¹ s⁻¹. The half-inhibitory concentration (IC50) in assay [7] is 0.56 nM. The “IC50 of inhibition of VEGF-stimulated HUVEC proliferation” value in assay [2] stood at 0.039 nM. Moreover, the IC50 in assay [3] is 4.1 nM.

B3: heavy chain of EBV307 paired with light chain of EBV320 (antibody, V domains shown)
VH: QSVEESGGGLVKPGGTLTLTCTVSGFSFSNNDVMCWVRQAPGKGLEWIGCIMTTDVVTAYANWAKSRFTVSRTSSTTVTLQVTSLTVADTATYFCARDSVGSPLMSFDLWGPGTLVTVSS
VL: LVMTQTPASVSAAVGGTVTINCQASQNLYNNNELSWYQQKPGQPPKLLIYWASTLASGVPSRFKGSGSGTQFTLTISGVQCADAATYYCAGYKSYSNDGNGFGGGTEVVVK
notes: also called 307H/320L
Regarding B3, the binding result in assay [8] was “binds”.

B4: anti-VEGF RabMAb EBV320 (antibody, V domains shown)
VH: QSLEESGGDLVKPGASLTLTCTASGFSFSNNAVMCWVRQAPGKGLEWIGCIMTTDVVTEYANWAKSRFTVSKTSSTTVTLQMTSLTVADTATYFCARDSVGSPLMSFDLWGPGTLVTVSS
VL: LVMTQTPASVSAAVGGTVTINCQASQNLYNNNELSWYQQKPGQPPKLLIYWASTLASGVPSRFKGSGSGTQFTLTISGVQCADAATYYCAGYKSYSNDGNGFGGGTEVVVK
notes: also called 320H/320L; source: 293-6E cells, L and H chain plasmids co-transfected, purified (protein A)
Turning to B4, the IC50 in assay [7] came to 3.32 nM.

B5: heavy chain of EBV321 paired with light chain of EBV302 (antibody, V domains shown)
VH: QSLEESGGDLVKPGASLTLSCTASGFSFSNNDVMCWVRQAPGKGLEWIGCIMTTDVVTEYANWAKSRFTVSKTSSSTVTLQLTSLTVADTATYFCARDSVGSPLMSFDLWGPGTLVTVSS
VL: LVMTQTPASVSAAVGGTVIINCQASQNLYNNNELSWYQQKPGQPPKLLIYWASTLASGVPSRFKGSGSGTQFTLTISGVQCADAATYYCAGYKSYSNGGNGFGGGTEVVVK
On to B5, for which the binding result in assay [8] was “binds”.

B6: heavy chain of EBV307 paired with light chain of EBV302 (antibody, V domains shown)
VH: QSVEESGGGLVKPGGTLTLTCTVSGFSFSNNDVMCWVRQAPGKGLEWIGCIMTTDVVTAYANWAKSRFTVSRTSSTTVTLQVTSLTVADTATYFCARDSVGSPLMSFDLWGPGTLVTVSS
VL: LVMTQTPASVSAAVGGTVIINCQASQNLYNNNELSWYQQKPGQPPKLLIYWASTLASGVPSRFKGSGSGTQFTLTISGVQCADAATYYCAGYKSYSNGGNGFGGGTEVVVK
notes: also called 307H/302L
Turning to B6, the binding result in assay [8] is reported as “binds”.

B7: heavy chain of EBV321 paired with light chain of EBV307 (antibody, V domains shown)
VH: QSLEESGGDLVKPGASLTLSCTASGFSFSNNDVMCWVRQAPGKGLEWIGCIMTTDVVTEYANWAKSRFTVSKTSSSTVTLQLTSLTVADTATYFCARDSVGSPLMSFDLWGPGTLVTVSS
VL: LVMTQTPASVSAAVGGTVTINCQASQSVYGNNELSWYQQKPGQRPKLLIYRASTLASGVPSRFSGSGSGTQFTLTISGVQCFDAATYYCSGYKSYYNDGSGFGGGTEVVVK
With B7, in assay [8], the binding result is listed as “binds”.

B8: heavy chain of EBV307 paired with light chain of EBV321 (antibody, V domains shown)
VH: QSVEESGGGLVKPGGTLTLTCTVSGFSFSNNDVMCWVRQAPGKGLEWIGCIMTTDVVTAYANWAKSRFTVSRTSSTTVTLQVTSLTVADTATYFCARDSVGSPLMSFDLWGPGTLVTVSS
VL: LVMTQTPASVSAAVGGTVTINCQASQSVYGNNELSWYQQKPGQPPKLLIYRASTLASGVPSRFSGSGSGTQFTLTISGVQCADAATYYCGGYKSYSNDGNGFGGGTEVVVK
notes: also called 307H/321L
With B8, in assay [8], the binding result was “binds”.

B9: heavy chain of EBV321 paired with light chain of EBV320 (antibody, V domains shown)
VH: QSLEESGGDLVKPGASLTLSCTASGFSFSNNDVMCWVRQAPGKGLEWIGCIMTTDVVTEYANWAKSRFTVSKTSSSTVTLQLTSLTVADTATYFCARDSVGSPLMSFDLWGPGTLVTVSS
VL: LVMTQTPASVSAAVGGTVTINCQASQNLYNNNELSWYQQKPGQPPKLLIYWASTLASGVPSRFKGSGSGTQFTLTISGVQCADAATYYCAGYKSYSNDGNGFGGGTEVVVK
In the case of B9, the binding result in assay [8] was “binds”.

B10: heavy chain of EBV302 paired with light chain of EBV321 (antibody, V domains shown)
VH: QSLEESGGDLVKPGASLTLTCTASGFSFSNNAVMCWVRQAPGKGLEWIGCIMTTDVVTEYANWAKSRFTVSKTSSTTVTLQMTSLTVADTATYFCARDSVGSPLMSFDLWGPGTLVTVSS
VL: LVMTQTPASVSAAVGGTVTINCQASQSVYGNNELSWYQQKPGQPPKLLIYRASTLASGVPSRFSGSGSGTQFTLTISGVQCADAATYYCGGYKSYSNDGNGFGGGTEVVVK
notes: also called 302H/321L
As to B10, in assay [8], the binding result is “binds”.

B11: anti-VEGF RabMAb EBV302 (antibody, V domains shown)
VH: QSLEESGGDLVKPGASLTLTCTASGFSFSNNAVMCWVRQAPGKGLEWIGCIMTTDVVTEYANWAKSRFTVSKTSSTTVTLQMTSLTVADTATYFCARDSVGSPLMSFDLWGPGTLVTVSS
VL: LVMTQTPASVSAAVGGTVIINCQASQNLYNNNELSWYQQKPGQPPKLLIYWASTLASGVPSRFKGSGSGTQFTLTISGVQCADAATYYCAGYKSYSNGGNGFGGGTEVVVK
notes: also called 302H/302L; source: 293-6E cells, L and H chain plasmids co-transfected, purified (protein A)
For B11, the IC50 in assay [7] amounted to 25.2 nM.

B12: heavy chain of EBV320 paired with light chain of EBV321 (antibody, V domains shown)
VH: QSLEESGGDLVKPGASLTLTCTASGFSFSNNAVMCWVRQAPGKGLEWIGCIMTTDVVTEYANWAKSRFTVSKTSSTTVTLQMTSLTVADTATYFCARDSVGSPLMSFDLWGPGTLVTVSS
VL: LVMTQTPASVSAAVGGTVTINCQASQSVYGNNELSWYQQKPGQPPKLLIYRASTLASGVPSRFSGSGSGTQFTLTISGVQCADAATYYCGGYKSYSNDGNGFGGGTEVVVK
notes: also called 320H/321L
For the molecule B12, the binding result in assay [8] was “binds”.

B13: heavy chain of EBV302 paired with light chain of EBV307 (antibody, V domains shown)
VH: QSLEESGGDLVKPGASLTLTCTASGFSFSNNAVMCWVRQAPGKGLEWIGCIMTTDVVTEYANWAKSRFTVSKTSSTTVTLQMTSLTVADTATYFCARDSVGSPLMSFDLWGPGTLVTVSS
VL: LVMTQTPASVSAAVGGTVTINCQASQSVYGNNELSWYQQKPGQRPKLLIYRASTLASGVPSRFSGSGSGTQFTLTISGVQCFDAATYYCSGYKSYYNDGSGFGGGTEVVVK
notes: also called 302H/307L
Regarding B13, the binding result in assay [8] is “binds”.

B14: anti-VEGF RabMAb EBV307 (antibody, V domains shown)
VH: QSVEESGGGLVKPGGTLTLTCTVSGFSFSNNDVMCWVRQAPGKGLEWIGCIMTTDVVTAYANWAKSRFTVSRTSSTTVTLQVTSLTVADTATYFCARDSVGSPLMSFDLWGPGTLVTVSS
VL: LVMTQTPASVSAAVGGTVTINCQASQSVYGNNELSWYQQKPGQRPKLLIYRASTLASGVPSRFSGSGSGTQFTLTISGVQCFDAATYYCSGYKSYYNDGSGFGGGTEVVVK
notes: also called 307H/307L; source: 293-6E cells, L and H chain plasmids co-transfected, purified (protein A)
For B14, the IC50 in assay [7] stood at 2.62 nM.

B15: heavy chain of EBV320 paired with light chain of EBV307 (antibody, V domains shown)
VH: QSLEESGGDLVKPGASLTLTCTASGFSFSNNAVMCWVRQAPGKGLEWIGCIMTTDVVTEYANWAKSRFTVSKTSSTTVTLQMTSLTVADTATYFCARDSVGSPLMSFDLWGPGTLVTVSS
VL: LVMTQTPASVSAAVGGTVTINCQASQSVYGNNELSWYQQKPGQRPKLLIYRASTLASGVPSRFSGSGSGTQFTLTISGVQCFDAATYYCSGYKSYYNDGSGFGGGTEVVVK
notes: also called 320H/307L
For B15, the binding result in assay [8] was “binds”.
